Results reported in PMC3462482 (Nature structural & molecular biology, 2012).

Biological target: T1, PatGmac H618A (Prochloron sp., UniProt Q52QJ1 492-851, H618A)
T1 sequence: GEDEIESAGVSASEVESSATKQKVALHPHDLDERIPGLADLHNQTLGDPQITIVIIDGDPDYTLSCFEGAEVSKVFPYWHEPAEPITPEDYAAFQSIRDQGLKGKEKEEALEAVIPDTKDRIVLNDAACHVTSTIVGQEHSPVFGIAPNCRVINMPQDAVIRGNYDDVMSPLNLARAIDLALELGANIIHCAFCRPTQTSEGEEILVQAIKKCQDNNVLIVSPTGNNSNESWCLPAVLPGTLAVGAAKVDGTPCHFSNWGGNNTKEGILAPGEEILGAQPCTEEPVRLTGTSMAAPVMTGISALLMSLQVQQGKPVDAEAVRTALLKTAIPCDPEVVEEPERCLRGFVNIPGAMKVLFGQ
Assay: crystal structure

## VPAPIPFPAYDG [VPAPIPFPAYDG peptide (substrate mimic)]
  binding result: binds
